Experimental data: article PMC4222680, “A Germline Polymorphism of Thymine DNA Glycosylase Induces Genomic Instability and Cellular Transformation”

Experiments:
TDG WT = TDG WT (human, UniProt Q13569 1-410); experiment: EMSA; 20 mM HEPES pH 7.3, 1 mM EDTA, 10 mM (NH4)2SO4, 1 mM DTT, 0.2% Tween-20, 30 mM KCl; 2 nM DNA, 30 min at room temperature; 6% native PAGE at 4 C; conditions: protein: recombinant; tags: N-terminal 6xHis (pET28a); label: 5'-32P on the template oligonucleotide; blunt
TDG G199S = TDG G199S (human (rs4135113 variant), UniProt Q13569 1-410, G199S); experiment: as above; conditions: protein: recombinant; tags: N-terminal 6xHis (pET28a); label: 5'-32P on the template oligonucleotide; blunt
Chain of TDG G199S (Q13569 whole entry G199S): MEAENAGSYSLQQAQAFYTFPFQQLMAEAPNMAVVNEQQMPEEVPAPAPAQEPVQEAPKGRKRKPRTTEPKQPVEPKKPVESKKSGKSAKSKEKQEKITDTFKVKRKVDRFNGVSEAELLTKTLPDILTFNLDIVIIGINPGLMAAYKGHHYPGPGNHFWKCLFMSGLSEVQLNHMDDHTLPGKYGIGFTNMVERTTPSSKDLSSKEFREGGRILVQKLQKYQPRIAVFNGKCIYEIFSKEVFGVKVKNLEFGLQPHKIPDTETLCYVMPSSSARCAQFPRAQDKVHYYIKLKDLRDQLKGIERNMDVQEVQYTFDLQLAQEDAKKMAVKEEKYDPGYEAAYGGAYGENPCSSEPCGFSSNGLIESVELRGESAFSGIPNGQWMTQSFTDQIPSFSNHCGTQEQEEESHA

Chain of TDG WT (Q13569 whole entry): as the sequence (Q13569 whole entry G199S) above, with S199G counted along it

B1: 28-mer 5-FU:A (dsDNA)
DNA 1: CAGCTCTGTACATGAGCAGTGGTGACAC
DNA 2: GTGTCACCACTGCTCAUGTACAGAGCTG
modifications: 5-fluorouracil (X, written U) at position 17 of strand 2, opposite A12 of strand 1
TDG WT
  Kd: 77 ± 13 nM
TDG G199S
  Kd: 41 ± 5 nM
